# Test results as given in ChEMBL document CHEMBL1155806, “Inorganic polyhedral metallacarborane inhibitors of HIV protease: a new approach to overcoming antiviral resistance” (J Med Chem, 2008).
# Tests used:
# [1] = system: Cc1c(O)cccc1C(=O)N[C@@H](CSc1ccccc1)[C@H](O)CN1C[C@H]2CCCC[C@H]2C[C@H]1C(=O)NC(C)(C)C; details: Human immunodeficiency virus 1
# [2] = system: Cc1c(O)cccc1C(=O)N[C@@H](CSc1ccccc1)[C@H](O)CN1C[C@H]2CCCC[C@H]2C[C@H]1C(=O)NC(C)(C)C; details: Human immunodeficiency virus 1; BH10
# [3] = system: Cc1c(O)cccc1C(=O)N[C@@H](CSc1ccccc1)[C@H](O)CN1C[C@H]2CCCC[C@H]2C[C@H]1C(=O)NC(C)(C)C; details: Human immunodeficiency virus 1; remark: listed apart in the source
# [4] = system: Cc1c(O)cccc1C(=O)N[C@@H](CSc1ccccc1)[C@H](O)CN1C[C@H]2CCCC[C@H]2C[C@H]1C(=O)NC(C)(C)C; details: Human immunodeficiency virus 1; remark: listed apart in the source
# [5] = system: Cc1c(O)cccc1C(=O)N[C@@H](CSc1ccccc1)[C@H](O)CN1C[C@H]2CCCC[C@H]2C[C@H]1C(=O)NC(C)(C)C; details: Human immunodeficiency virus 1; remark: listed apart in the source
# [6] = system: Cc1c(O)cccc1C(=O)N[C@@H](CSc1ccccc1)[C@H](O)CN1C[C@H]2CCCC[C@H]2C[C@H]1C(=O)NC(C)(C)C; details: Human immunodeficiency virus 1; remark: listed apart in the source
# [7] = system: Cc1c(O)cccc1C(=O)N[C@@H](CSc1ccccc1)[C@H](O)CN1C[C@H]2CCCC[C@H]2C[C@H]1C(=O)NC(C)(C)C; details: Human immunodeficiency virus 1; remark: listed apart in the source
# [8] = system: Cc1c(O)cccc1C(=O)N[C@@H](CSc1ccccc1)[C@H](O)CN1C[C@H]2CCCC[C@H]2C[C@H]1C(=O)NC(C)(C)C; details: Human immunodeficiency virus 1; remark: listed apart in the source
substance,measurement,setting,value
"Human immunodeficiency virus type 1 protease (Human immunodeficiency virus 1), Q72874 L10F,L19I,K20R,L33F,E35D,M36I,R41K,F53L,I54V,L63P,H69K,A71V,T74P,I84V,L89M,L90M,I93L",Km,[1],13 µM
same,kcat,[1],10 s⁻¹
"Protease (Human immunodeficiency virus 1), Q9YQ12",Km,[2],15 µM
same,kcat,[2],30 s⁻¹
"Human immunodeficiency virus type 1 protease (Human immunodeficiency virus 1), Q72874 D30N,N88D",Km,[3],18 µM
same,kcat,[3],24 s⁻¹
"Human immunodeficiency virus type 1 protease (Human immunodeficiency virus 1), Q72874 M46I,A71V,V82T,I84V",Km,[4],48 µM
same,kcat,[4],14 s⁻¹
"Human immunodeficiency virus type 1 protease (Human immunodeficiency virus 1), Q72874 L10I,L24I,L33F,M46L,I54V,L63P,A71V,V82A,I84V",Km,[5],14 µM
same,kcat,[5],6.4 s⁻¹
"Human immunodeficiency virus type 1 protease (Human immunodeficiency virus 1), Q72874 L10I,I15V,E35D,N37S,R41K,I62V,L63P,A71V,G73S,L90M",Km,[6],8.3 µM
same,kcat,[6],12 s⁻¹
"Human immunodeficiency virus type 1 protease (Human immunodeficiency virus 1), Q72874 A71V,V82T,I84V",Km,[7],36 µM
same,kcat,[7],11 s⁻¹
"Human immunodeficiency virus type 1 protease (Human immunodeficiency virus 1), Q72874 V32I,I47A",Km,[8],35 µM
same,kcat,[8],7.5 s⁻¹
